The source of these data is article PMC12509985, “Phosphoglycerate dehydrogenase interacts with and inhibits the protein kinase TAK1 to mitigate septic shock” (The Journal of Biological Chemistry, 2025).

Several values for one entry are separate records, joined by “and”; a condition that tells them apart may be missing. Equal entries are not always repeated.

Data set [1] concerns the molecule itself. The data set is described as follows: cross-linking; lysate of PHGDH-KO PMs transfected with PHGDH or PHGDH (V425M) for 48 h; 0.25 mM cross-linker (DSS in the legend, dimethyl suberimidate in the methods), room temperature 10 min; Western blot.
Data set [2] concerns the molecule itself. The experiment in a line: cross-linking; lysate of WT PMs (native lysis buffer), untreated or pretreated with 15 μM CBR-5884 for 6 h; 0.25 mM cross-linker (DSS in the legend, dimethyl suberimidate in the methods), room temperature 10 min; Western blot of PHGDH. On the technique in general: In western blotting, separated proteins are transferred to a membrane and probed.

B1: PHGDH-Flag, expressed in PHGDH-KO peritoneal macrophages (enzyme, UniProt Q61753 1-533, looked up)
chain: MAFANLRKVLISDSLDPCCRKILQDGGLQVVEKQNLSKEELIAELQDCEGLIVRSATKVTADVINAAEKLQVVGRAGTGVDNVDLEAATRKGILVMNTPNGNSLSAAELTCGMIMCLARQIPQATASMKDGKWDRKKFMGTELNGKTLGILGLGRIGREVATRMQSFGMKTVGYDPIISPEVAASFGVQQLPLEEIWPLCDFITVHTPLLPSTTGLLNDSTFAQCKKGVRVVNCARGGIVDEGALLRALQSGQCAGAALDVFTEEPPRDRALVDHENVISCPHLGASTKEAQSRCGEEIAVQFVDMVKGKSLTGVVNAQALTSAFSPHTKPWIGLAEAMGTLMHAWAGSPKGTIQVVTQGTSLKNAGTCLSPAVIVGLLREASKQADVNLVNAKLLVKEAGLNVTTSHNPGVPGEQGSGECLLTVALAGAPYQAVGLVQGTTPMLQMLNGAVFRPEVPLRRGQPLLVFRAQPSDPGMLPTMIGLLAEAGVQLLSYQTSMVSDGEPWHVMGLSSLLPSLETWKQHVLEAFQFCF
notes: phosphoglycerate dehydrogenase (PHGDH); also called WT PHGDH; PHGDH-HA (methods); source: PHGDH-KO mouse peritoneal macrophages, transfected 48 h, in lysate
On to B1, for which the stoichiometry N (usually a count of units in the complex or per binding partner) in data set [1] stood at 4.

B2: PHGDH (V425M)-Flag, expressed in PHGDH-KO peritoneal macrophages (enzyme, UniProt Q61753 1-533, looked up)
chain: MAFANLRKVLISDSLDPCCRKILQDGGLQVVEKQNLSKEELIAELQDCEGLIVRSATKVTADVINAAEKLQVVGRAGTGVDNVDLEAATRKGILVMNTPNGNSLSAAELTCGMIMCLARQIPQATASMKDGKWDRKKFMGTELNGKTLGILGLGRIGREVATRMQSFGMKTVGYDPIISPEVAASFGVQQLPLEEIWPLCDFITVHTPLLPSTTGLLNDSTFAQCKKGVRVVNCARGGIVDEGALLRALQSGQCAGAALDVFTEEPPRDRALVDHENVISCPHLGASTKEAQSRCGEEIAVQFVDMVKGKSLTGVVNAQALTSAFSPHTKPWIGLAEAMGTLMHAWAGSPKGTIQVVTQGTSLKNAGTCLSPAVIVGLLREASKQADVNLVNAKLLVKEAGLNVTTSHNPGVPGEQGSGECLLTMALAGAPYQAVGLVQGTTPMLQMLNGAVFRPEVPLRRGQPLLVFRAQPSDPGMLPTMIGLLAEAGVQLLSYQTSMVSDGEPWHVMGLSSLLPSLETWKQHVLEAFQFCF
notes: phosphoglycerate dehydrogenase (PHGDH) with V425M made by site-directed mutagenesis; also called PHGDH (V425M)-HA (methods); source: PHGDH-KO mouse peritoneal macrophages, transfected 48 h, in lysate
Turning to B2, in data set [1], the “stoichiometry N” value was 4 and 2.

B3: PHGDH, endogenous in mouse peritoneal macrophages (enzyme, UniProt Q61753 1-533, looked up)
chain: MAFANLRKVLISDSLDPCCRKILQDGGLQVVEKQNLSKEELIAELQDCEGLIVRSATKVTADVINAAEKLQVVGRAGTGVDNVDLEAATRKGILVMNTPNGNSLSAAELTCGMIMCLARQIPQATASMKDGKWDRKKFMGTELNGKTLGILGLGRIGREVATRMQSFGMKTVGYDPIISPEVAASFGVQQLPLEEIWPLCDFITVHTPLLPSTTGLLNDSTFAQCKKGVRVVNCARGGIVDEGALLRALQSGQCAGAALDVFTEEPPRDRALVDHENVISCPHLGASTKEAQSRCGEEIAVQFVDMVKGKSLTGVVNAQALTSAFSPHTKPWIGLAEAMGTLMHAWAGSPKGTIQVVTQGTSLKNAGTCLSPAVIVGLLREASKQADVNLVNAKLLVKEAGLNVTTSHNPGVPGEQGSGECLLTVALAGAPYQAVGLVQGTTPMLQMLNGAVFRPEVPLRRGQPLLVFRAQPSDPGMLPTMIGLLAEAGVQLLSYQTSMVSDGEPWHVMGLSSLLPSLETWKQHVLEAFQFCF
notes: phosphoglycerate dehydrogenase (PHGDH), endogenous in mouse peritoneal macrophages; Seen as tetramers and dimers after cross-linking of the lysate; also called endogenous PHGDH; source: endogenous, mouse peritoneal macrophage (PM) extract
As to B3, in data set [2], the “stoichiometry N” value was 4 and 2.
